Where two headings read alike, the source gives them in different places.
Experiments:
Test in all cases: ITC
βI14-15 T1788A [1] = target: βI14-15 T1788A
[2] = target: wild type βI-spectrin 14-15 di-repeat
βI14-15 Y1866A = target: βI14-15 Y1866A
βI14-15 E1784A = target: βI14-15 E1784A
βI14-15 E1703A = target: βI14-15 E1703A
βI14-15 D1700A = target: βI14-15 D1700A
βI14-15 E1708A = target: βI14-15 E1708A
βI14-15 D1781A = target: βI14-15 D1781A
βI14-15 T1788A [3] = target: βI14-15 T1788A; remark: listed apart in the source
βI14-15 A1867P = target: βI14-15 A1867P
βI14-15 D1701A = target: βI14-15 D1701A
βI14-15 E1710A = target: βI14-15 E1710A

B1: ZU5 domain of ankyrin (domain or fragment)
chain: FLVSFMVDARGGSMRGSRHNGLRVVIPPRTCAAPTRITCRLVKPQKLSTPPPLAEEEGLASRIIALGPTGAQFLSPVIVEIPHFASHGRGDRELVVLRSENGSVWKEHRSRYGESYLDQILNGMDEELGSLEELEKKRVCRIITTDFPLYFVIMSR
For B1, the Kd (βI14-15 T1788A [1]) was 5800 nM, the Kd [2] was 190 nM and the Kd (βI14-15 Y1866A) was 22000 nM. It also gave a Kd (βI14-15 E1784A) of 43400 nM, a Kd (βI14-15 E1703A) of 320 nM and a Kd (βI14-15 D1700A) of 440 nM. The Kd (βI14-15 E1708A) was 430 nM, the Kd (βI14-15 D1781A) was 2100 nM and the Kd (βI14-15 T1788A [3]) was 5730 nM. For the same binder, the Kd (βI14-15 A1867P) was 14900 nM, the Kd (βI14-15 D1701A) was 360 nM and the Kd (βI14-15 E1710A) was 1700 nM.
